From publication PMC10653815

Columns and labels:
[1] = target: MosV-RBPβ (C-terminal six-bladed β-propeller head domain of the Mossman virus receptor-binding protein, Glu202−Thr632) (Mossman virus); test: SEC; Superdex 200 10/30 column, 10 mM Tris pH 8.0, 150 mM NaCl; compared with gel filtration standards; pre- and post-deglycosylation
[2] = target: MosV-RBPβ (C-terminal six-bladed β-propeller head domain of the Mossman virus receptor-binding protein, Glu202−Thr632) (Mossman virus); test: SEC-SAXS; glycosylated protein, 45 µL at 5 mg/mL on Superdex 200 PC 3.2/30 in TBS, in-line SAXS; curves fitted with monomeric and dimeric crystal models
[3] = target: NarV-RBPβ (C-terminal six-bladed β-propeller head domain of the Nariva virus receptor-binding protein, Glu184−Pro657) (Nariva virus); test: SEC; Superdex 200 10/30 column, 10 mM Tris pH 8.0, 150 mM NaCl; compared with gel filtration standards; pre- and post-deglycosylation
[4] = target: NarV-RBPβ (C-terminal six-bladed β-propeller head domain of the Nariva virus receptor-binding protein, Glu184−Pro657) (Nariva virus); test: SEC-SAXS; glycosylated protein, 45 µL at 5 mg/mL on Superdex 200 PC 3.2/30 in TBS, in-line SAXS; curves fitted with monomeric and dimeric crystal models

Row | Substance | stoichiometry N [1] | stoichiometry N [2] | stoichiometry N [3] | stoichiometry N [4]
1 | MosV-RBPβ (C-terminal six-bladed β-propeller head domain of the Mossman virus receptor-binding protein, Glu202−Thr632) (domain or fragment) | 2 | 2 |  | 
2 | NarV-RBPβ (C-terminal six-bladed β-propeller head domain of the Nariva virus receptor-binding protein, Glu184−Pro657) (domain or fragment) |  |  | 2 | 2
